According to the supplement of paper PMC10567573:
± gives the standard deviation.

Test: protein stability index of a GFP-peptide fusion (GPS, HEK-293T) (PSI 1-6); higher = more stable
[1] = treatment: DMSO, c terminus: a fixed tail appended
[2] = treatment: MLN4924 1 uM, 8 h, c terminus: a fixed tail appended
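Also: 24-mer peptide tiles fused after GFP, lentivirally expressed, FACS-sorted into six equal bins by GFP/DsRed ratio, decoded by Illumina sequencing, PSI is the read-weighted mean bin number.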

Sequence | protein stability index [1] | protein stability index [2] | protein stability index (treatment: DMSO, c terminus: native) | protein stability index (treatment: MLN4924 1 uM, 8 h, c terminus: native)
CSNLTPNVPNVCRMYCSDLLNPNL [SPACA3] | 2.62 ± 0.55 | 2.42 ± 0.45 |  | 
PSCQETRDYAPPSRGYAYRDNGHS [RBMY1A1] | 4.18 ± 0.18 | 4.21 ± 0.21 |  | 
DAVTAALLIPKEDGVITASEDRTI [WDFY1] | 4.7 ± 0.13 | 4.86 ± 0.27 |  | 
AWKHGNIHLSAPCIYSEVMEALKL [PCMTD1] | 2.28 ± 0.34 | 2.14 ± 0.33 |  | 
MLLPQLCWLPLLAGLLPPVPAQKF [SMOC2] | 3.51 ± 0.69 | 3.67 ± 1.4 |  | 
YESSADIAGDEGTQIPADEDTQTD [TAF7L] | 5.61 ± 0.24 | 5.53 ± 0.24 |  | 
RQNLKLLVEETSCQQNMIQELIET [CEP70] | 3.42 ± 0.16 | 3.43 ± 0.45 |  | 
RSLANGPNAGEQPGQVAGADFESE [EID1] | 5.22 ± 0.24 | 5.74 ± 0.18 |  | 
EPSNKTIHAELSKLVKKHAAQRST [FKBP8] | 4.49 ± 0.21 | 4.47 ± 0.3 |  | 
VVLCFSIANPNSLHHVKTMWYPEI [RHOBTB2] | 3.23 ± 0.42 | 3.16 ± 0.21 |  | 
LIGFCMFVLSLVKKHYRLQFYMFG [CDS2] | 2.33 ± 0.61 | 2.47 ± 0.85 |  | 
EPSWECKFDHIEVRDGPFGFSPII [NETO1] | 2.36 ± 0.36 | 2.3 ± 0.22 |  | 
TQHKFICEQCGKCKCGECTAPRTL [SPRY1] | 4 ± 0.22 | 3.87 ± 0.18 |  | 
SEMAEDLCKIGSERSLVLDRLASN [IKZF1] | 4.56 ± 0.38 | 4.73 ± 0.2 |  | 
ELTSVTAWMLCKLLDKAGVPPGVV [ALDH8A1] | 2.98 ± 0.42 | 2.69 ± 0.52 |  | 
YSLMKRQMMSATAQNREPESVEQL [SNX8] | 4.37 ± 0.38 | 4.48 ± 0.19 |  | 
LEEEIERNKESPVFAPVYFPEELH [HMOX1] | 5.32 ± 0.43 | 5.09 ± 0.57 |  | 
FEKHRWPPVWYLKEEDHYQRARKE [RHOBTB2] | 3.26 ± 0.3 | 3.52 ± 0.5 |  | 
RKRNPSRKKQHICDECGKHFSQGS [ZNF24] | 3.91 ± 0.19 | 4.12 ± 0.097 |  | 
RQRLLADLLHNVSQNIAAETRAED [DFFB] | 4.1 ± 0.36 | 4.09 ± 0.44 |  | 
LEDAAGGDSASEEKSGSAEPFVLP [FBXO34] | 5.46 ± 0.37 | 5.34 ± 0.33 |  | 
VCNKKFKMKHHLTEHMKTHTGLKP [ZBTB22] | 3.18 ± 0.14 | 3.21 ± 0.23 |  | 

Sequence | protein stability index [1] | protein stability index [2] | protein stability index (treatment: DMSO, c terminus: native) | protein stability index (treatment: MLN4924 1 uM, 8 h, c terminus: native)
EANEEFALRVQQLVAKELGQTGTR [AUP1] | 3.87 ± 0.35 | 3.99 ± 0.45 |  | 
ELDRWLYHLEKQTALLGGPRRCHS [PLEKHN1] | 2.24 ± 0.19 | 2.17 ± 0.39 |  | 
CDECGKIFSQSSALILHQRIHSGK [ZNF396] | 5.51 ± 0.39 | 5.51 ± 0.11 |  | 
MRSGEPACTMDQARGLDDAAARGG [ZBED3] | 5 ± 0.23 | 5.06 ± 0.15 |  | 
QDSFEAAGNSTSGSRAGASSFSDP [KCNA3] | 5.42 ± 0.31 | 5.35 ± 0.16 |  | 
YVLKYMESNAAQYSPEALASIQNH [EFHC1] | 2.31 ± 0.14 | 2.35 ± 0.24 |  | 
QNPRQVAQSEAEKKLKKDDKKKEL [ZC3H15] | 5.52 ± 0.22 | 5.58 ± 0.19 |  | 
VIKDKDDSVDAQNICHVWHMNVEA [RNF180] | 3.98 ± 0.047 | 3.66 ± 0.17 |  | 
QEGLLDRCVSFQARFAEKEELMLV [HDAC6] | 2.44 ± 0.34 | 2.52 ± 0.53 |  | 
SGSAVSTAPQQKPIGKISKNKKKK [SRPK2] | 4.77 ± 0.43 | 5.07 ± 0.2 |  | 
EDEDEDKEEEEEDCSEEYLERQLQ [TAF7L] | 5.636 ± 0.049 | 5.76 ± 0.18 |  | 
DLSKIIRTSSGTSREKTACAINKV [FAM98B] | 3.06 ± 0.27 | 3.19 ± 0.6 |  | 
RNARIVHLVEETRIHVLPSLNPDG [CPXM2] | 2.97 ± 0.037 | 3.2 ± 0.24 |  | 
QNKIRACGERLSLGLSRAQPVQSK [PDLIM7] | 3.92 ± 0.28 | 3.85 ± 0.2 |  | 
DVLAHQVPNAKKLRRKEQLWEKLA [NOP53] | 2.84 ± 0.36 | 3.09 ± 0.29 |  | 
ELPPSLRAPPPGGWPLQPRVQWG [ZMAT5] |  |  | 2.75 ± 0.33 | 2.82 ± 0.099
RRSSSKCIHDHHCGSQLSSTKGSR [NETO1] | 3.74 ± 0.33 | 3.92 ± 0.36 |  | 
YPVTIGGKIVGSLCAIAGVLTIAL [KCNA1] | 2.35 ± 0.21 | 2.23 ± 0.16 |  | 
GKDSRWLPSLVLARLVFVPLLLLC [SLC29A1] | 2.68 ± 0.78 | 2.48 ± 0.45 |  | 
QPTIVEALLGYEMVQVACGASHVL [NEK8] | 2.75 ± 0.45 | 2.74 ± 0.7 |  | 
MSHHQEELVPKQPQKRKPQEQLLE [SLC2A12] | 5.25 ± 0.14 | 5.34 ± 0.15 |  | 
EEKSFWEMEKSFREEEKTFWKKYR [CCDC70] | 4.18 ± 0.68 | 4.232 ± 0.013 |  | 
